Results on 1 protein are retold here after US8236925 (UNIVERSITY OF MINNESOTA, dated 2012).

The data set concerns the molecule itself.

B1: E. coli dihydrofolate reductase (DHFR) (enzyme)
chain: MISLIAALAVDRVIGMENAMPWNLPADLAWFKRNTLNKPVIMGRHTWESIGRPLPGRKNIILSSQPGTDDRVTWVKSVDEAIAACGDVPEIMVIGGGRVYEQFLPKAQKLYLTHIDAEVEGDTHFPDYEPDDWESVFSEFHDADAQNSHSYCFEILERR
With B1, the “selectivity of dimerization for E. coli DHFR relative to mouse DHFR” value was > 1e+07 and the “ΔG of favorable protein-protein interactions” value was ≥ -3.1 kcal/mol.
